Measured values from article PMC11150344 (2024).

T1: PIK3CA H1047L peptide on HLA-A*11:01 (human)
T1 peptide: ALHGGWTTK

T2: PIK3CA H1047L peptide on HLA-A*03:01 (human)
T2 peptide: ALHGGWTTK

B1: TCR1 (TCR)
alpha TRAV13-2*01 TRAJ49*01 CDR3: CAEGETGNQFYF
beta TRBV5-1*01 TRBJ2-1*01 CDR3: CASSSGTGGFEQFF
B2: TCR2 (TCR)
alpha TRAV12-3*01 TRAJ26*01 CDR3: CATNYGQNFVF
beta TRBV29-1*01 TRBJ2-7*01 CDR3: CSVSGTSNYEQYF
B3: TCR4 (TCR)
alpha TRAV19*01 TRAJ49*01 CDR3: CALSEATGNQFYF
beta TRBV29-1*01 TRBJ2-7*01 CDR3: CSVQTLTSSDEQYF
B4: TCR5 (TCR)
alpha TRAV24*01 TRAJ44*01 CDR3: CASHAGTASKLTF
beta TRBV4-3*01 TRBJ2-1*01 CDR3: CASSQDVASSYNEQFF

Target: T1, PIK3CA H1047L peptide on HLA-A*11:01
Assay: multimer staining

Binder	binding result
B1	recognises
B2	recognises
B3	recognises
B4	recognises

Target: T2, PIK3CA H1047L peptide on HLA-A*03:01
Assay: activation reporter or marker

Binder	binding result
B1	no recognition
B2	no recognition
B3	no recognition
B4	no recognition
